B1: Transcription cofactor vestigial-like protein 4 (Homo sapiens), Q14135 (parent)
chain: METPLDVLSRAASLVHADDEKREAALRGEPRIQTLPVASALSSHRTGPPPISPSKRKFSMEPGDEDLDCDNDHVSKMSRIFNPHLNKTANGDCRRDPRERSRSPIERAVAPTMSLHGSHLYTSLPSLGLEQPLALTKNSLDASRPAGLSPTLTPGERQQNRPSVITCASAGARNCNLSHCPIAHSGCAAPGPASYRRPPSAATTCDPVVEEHFRRSLGKNYKEPEPAPNSVSITGSVDDHFAKALGDTWLQIKAAKDGASSSPESASRRGQPASPSAHMVSHSHSPSVVS

Variants of: B1
Details: with tead4_human TEAD4, Q15561
Chain of tead4_human TEAD4, Q15561 (Q15561 whole entry): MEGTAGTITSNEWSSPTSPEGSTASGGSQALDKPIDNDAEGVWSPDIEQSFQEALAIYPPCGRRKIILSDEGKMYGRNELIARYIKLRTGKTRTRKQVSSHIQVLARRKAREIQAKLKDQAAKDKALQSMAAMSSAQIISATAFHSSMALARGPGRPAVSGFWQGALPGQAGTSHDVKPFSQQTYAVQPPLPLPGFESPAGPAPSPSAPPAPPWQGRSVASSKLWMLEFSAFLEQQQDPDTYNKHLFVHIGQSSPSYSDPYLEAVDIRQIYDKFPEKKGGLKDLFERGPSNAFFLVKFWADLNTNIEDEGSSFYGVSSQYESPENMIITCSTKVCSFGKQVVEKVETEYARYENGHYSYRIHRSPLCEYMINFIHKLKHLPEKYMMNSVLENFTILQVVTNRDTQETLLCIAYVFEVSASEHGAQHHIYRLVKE

Row | Variant | effect of a mutation on the interaction
1 | METPLDVLSRAASLVHADDEKREAALRGEPRIQTLPVASALSSHRTGPPPISPSKRKFSMEPGDEDLDCDNDHVSKMSRIFNPHLNKTANGDCRRDPRERSRSPIERAVAPTMSLHGSHLYTSLPSLGLEQPLALTKNSLDASRPAGLSPTLTPGERQQNRPSVITCASAGARNCNLSHCPIAHSGCAAPGPASYRRPPSAATTCDPVVEEAARRSLGKNYKEPEPAPNSVSITGSVDDAAAKALGDTWLQIKAAKDGASSSPESASRRGQPASPSAHMVSHSHSPSVVS [H212A;F213A;H240A;F241A] | disrupting interaction
2 | METPLDVLSRAASLVHADDEKREAALRGEPRIQTLPVASALSSHRTGPPPISPSKRKFSMEPGDEDLDCDNDHVSKMSRIFNPHLNKTANGDCRRDPRERSRSPIERAVAPTMSLHGSHLYTSLPSLGLEQPLALTKNSLDASRPAGLSPTLTPGERQQNRPSVITCASAGARNCNLSHCPIAHSGCAAPGPASYRRPPSAATTCDPVVEEHFRRSLGKNYKEPEPAPNSVSITGSVDDAFAKALGDTWLQIKAAKDGASSSPESASRRGQPASPSAHMVSHSHSPSVVS [H240A] | decreasing interaction
3 | METPLDVLSRAASLVHADDEKREAALRGEPRIQTLPVASALSSHRTGPPPISPSKRKFSMEPGDEDLDCDNDHVSKMSRIFNPHLNKTANGDCRRDPRERSRSPIERAVAPTMSLHGSHLYTSLPSLGLEQPLALTKNSLDASRPAGLSPTLTPGERQQNRPSVITCASAGARNCNLSHCPIAHSGCAAPGPASYRRPPSAATTCDPVVEEHFRRSLGKNYKEPEPAPNSVSITGSVDDAAAKALGDTWLQIKAAKDGASSSPESASRRGQPASPSAHMVSHSHSPSVVS [H240A;F241A] | decreasing interaction
4 | METPLDVLSRAASLVHADDEKREAALRGEPRIQTLPVASALSSHRTGPPPISPSKRKFSMEPGDEDLDCDNDHVSKMSRIFNPHLNKTANGDCRRDPRERSRSPIERAVAPTMSLHGSHLYTSLPSLGLEQPLALTKNSLDASRPAGLSPTLTPGERQQNRPSVITCASAGARNCNLSHCPIAHSGCAAPGPASYRRPPSAATTCDPVVEEHFRRSLGKNYKEPEPAPNSVSITGSVDDHFAKAAGDTWLQIKAAKDGASSSPESASRRGQPASPSAHMVSHSHSPSVVS [L245A] | decreasing interaction

Variants of: B1
Details: with tead4_human TEAD4, Q15561
Remark: another data set of the same source

Row | Variant | effect of a mutation on the interaction
5 | METPLDVLSRAASLVHADDEKREAALRGEPRIQTLPVASALSSHRTGPPPISPSKRKFSMEPGDEDLDCDNDHVSKMSRIFNPHLNKTANGDCRRDPRERSRSPIERAVAPTMSLHGSHLYTSLPSLGLEQPLALTKNSLDASRPAGLSPTLTPGERQQNRPSVITCASAGARNCNLSHCPIAHSGCAAPGPASYRRPPSAATTCDPVVEEHFRRSLGKNYKEPEPAPNSVSITGSVDDHFAKALGDTALQIKAAKDGASSSPESASRRGQPASPSAHMVSHSHSPSVVS [W249A] | decreasing interaction

Source: IntAct's records for PubMed 24525233
